Measurements reported in the supplement of paper PMC10065799, “High-throughput profiling of sequence recognition by tyrosine kinases and SH2 domains using bacterial peptide display” (eLife, 2023).

How the values were obtained:
c-Src SH2 = assay: SH2 binding enrichment of the phosphorylated peptide, bacterial display (enrichment ratio); higher = better substrate or ligand; peptides without Tyr show the background
SHP2-C SH2 = assay: as above
Grb2 SH2 = Grb2 SH2 (UniProt P62993); assay: as above
EPHB1 = EPHB1 (UniProt P54762); assay: phosphorylation enrichment, bacterial display (enrichment ratio); higher = better substrate or ligand; peptides without Tyr show the background
Hck = Hck (UniProt P08631); assay: as above
Jak2 = Jak2 (UniProt O60674); assay: as above
MERTK = MERTK (UniProt Q12866); assay: as above
FGFR3 = FGFR3 (UniProt P22607); assay: as above
FGFR1 = FGFR1 (UniProt P11362); assay: as above
Fyn = Fyn (UniProt P06241); assay: as above
AncSZ = assay: as above
c-Src = assay: as above
Fer (mouse) = assay: as above
EPHB2 = EPHB2 (UniProt P29323); assay: as above
Fes = Fes (UniProt P07332); assay: as above
c-Abl (mouse) = assay: as above
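Wherever SH2 binding enrichment of the phosphorylated peptide, bacterial display is given: peptide library displayed on the E. coli surface as eCPX fusions, selected cells deep-sequenced, score is each peptide's frequency after selection divided by its frequency in the input.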
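Wherever phosphorylation enrichment, bacterial display is given: 11-residue human phosphosite peptides and single-mutation variants displayed on the E. coli surface, counted by deep sequencing, each peptide's frequency after selection divided by its frequency in the unselected input library; frequency after pTyr selection over input frequency; kinase dosed for 20-30% of maximal phosphorylation in three min.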

Sequence of Fes (P07332 whole entry, looked up): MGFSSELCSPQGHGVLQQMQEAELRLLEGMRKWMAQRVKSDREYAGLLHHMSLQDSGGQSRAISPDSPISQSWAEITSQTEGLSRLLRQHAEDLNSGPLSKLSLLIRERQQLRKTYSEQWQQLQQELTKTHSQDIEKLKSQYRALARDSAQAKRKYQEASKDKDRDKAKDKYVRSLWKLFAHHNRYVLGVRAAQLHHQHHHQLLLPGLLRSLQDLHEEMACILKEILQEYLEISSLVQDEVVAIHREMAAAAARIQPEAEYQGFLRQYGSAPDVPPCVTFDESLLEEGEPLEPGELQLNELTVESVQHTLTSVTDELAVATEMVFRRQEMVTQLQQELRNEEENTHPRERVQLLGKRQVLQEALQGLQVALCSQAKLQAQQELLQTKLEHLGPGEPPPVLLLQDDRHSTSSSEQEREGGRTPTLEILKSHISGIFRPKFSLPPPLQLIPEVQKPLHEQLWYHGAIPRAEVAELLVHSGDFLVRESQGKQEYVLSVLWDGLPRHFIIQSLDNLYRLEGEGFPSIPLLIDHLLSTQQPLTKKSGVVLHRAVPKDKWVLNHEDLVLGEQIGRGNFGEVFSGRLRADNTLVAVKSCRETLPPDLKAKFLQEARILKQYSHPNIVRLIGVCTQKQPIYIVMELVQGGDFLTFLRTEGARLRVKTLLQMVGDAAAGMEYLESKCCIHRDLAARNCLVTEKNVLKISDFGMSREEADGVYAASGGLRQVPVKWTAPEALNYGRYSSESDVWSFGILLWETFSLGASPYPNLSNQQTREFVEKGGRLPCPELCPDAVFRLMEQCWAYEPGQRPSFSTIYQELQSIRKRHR
Sequence of Fyn (P06241 whole entry, looked up): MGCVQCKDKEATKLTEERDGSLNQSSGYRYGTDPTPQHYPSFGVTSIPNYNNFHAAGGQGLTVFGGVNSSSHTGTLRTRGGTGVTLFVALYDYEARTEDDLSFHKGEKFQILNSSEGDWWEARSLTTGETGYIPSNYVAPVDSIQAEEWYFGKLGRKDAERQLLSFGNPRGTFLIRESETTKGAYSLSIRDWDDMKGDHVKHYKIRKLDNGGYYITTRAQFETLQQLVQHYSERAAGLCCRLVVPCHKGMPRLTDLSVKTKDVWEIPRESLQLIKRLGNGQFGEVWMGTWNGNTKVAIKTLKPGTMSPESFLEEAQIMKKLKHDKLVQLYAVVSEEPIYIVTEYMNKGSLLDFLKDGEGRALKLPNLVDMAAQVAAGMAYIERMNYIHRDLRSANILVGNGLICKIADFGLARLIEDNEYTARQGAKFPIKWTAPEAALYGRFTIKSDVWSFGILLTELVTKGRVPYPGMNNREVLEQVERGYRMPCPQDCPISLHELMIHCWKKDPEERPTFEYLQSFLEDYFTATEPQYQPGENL
Sequence of EPHB2 (P29323 whole entry, looked up): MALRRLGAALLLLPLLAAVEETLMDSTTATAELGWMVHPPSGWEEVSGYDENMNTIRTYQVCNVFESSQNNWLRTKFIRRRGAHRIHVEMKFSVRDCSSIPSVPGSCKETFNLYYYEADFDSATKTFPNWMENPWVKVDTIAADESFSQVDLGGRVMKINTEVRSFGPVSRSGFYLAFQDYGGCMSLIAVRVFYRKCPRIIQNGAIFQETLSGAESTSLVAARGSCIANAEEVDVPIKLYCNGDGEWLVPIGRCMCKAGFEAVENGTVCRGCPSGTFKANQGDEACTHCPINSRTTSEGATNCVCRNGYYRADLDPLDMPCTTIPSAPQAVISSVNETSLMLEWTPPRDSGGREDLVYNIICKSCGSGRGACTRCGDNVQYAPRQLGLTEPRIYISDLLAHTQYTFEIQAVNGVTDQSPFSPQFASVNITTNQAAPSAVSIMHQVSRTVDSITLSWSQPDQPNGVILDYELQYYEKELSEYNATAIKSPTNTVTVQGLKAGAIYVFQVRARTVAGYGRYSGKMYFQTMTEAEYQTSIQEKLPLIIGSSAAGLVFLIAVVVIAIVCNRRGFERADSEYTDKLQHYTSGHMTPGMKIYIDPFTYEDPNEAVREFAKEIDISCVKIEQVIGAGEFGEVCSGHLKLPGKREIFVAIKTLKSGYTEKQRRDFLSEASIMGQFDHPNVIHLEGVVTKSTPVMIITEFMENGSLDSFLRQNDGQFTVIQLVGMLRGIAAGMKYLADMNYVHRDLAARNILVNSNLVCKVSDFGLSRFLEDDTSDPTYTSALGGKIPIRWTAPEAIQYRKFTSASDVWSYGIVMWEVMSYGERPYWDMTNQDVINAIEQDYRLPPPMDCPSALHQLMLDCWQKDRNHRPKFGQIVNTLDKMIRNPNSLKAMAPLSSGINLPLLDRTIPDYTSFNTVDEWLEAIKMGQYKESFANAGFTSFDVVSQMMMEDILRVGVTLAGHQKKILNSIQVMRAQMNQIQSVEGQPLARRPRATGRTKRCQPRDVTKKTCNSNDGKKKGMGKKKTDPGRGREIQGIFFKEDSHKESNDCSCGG
Sequence of Grb2 SH2 (P62993 whole entry, looked up): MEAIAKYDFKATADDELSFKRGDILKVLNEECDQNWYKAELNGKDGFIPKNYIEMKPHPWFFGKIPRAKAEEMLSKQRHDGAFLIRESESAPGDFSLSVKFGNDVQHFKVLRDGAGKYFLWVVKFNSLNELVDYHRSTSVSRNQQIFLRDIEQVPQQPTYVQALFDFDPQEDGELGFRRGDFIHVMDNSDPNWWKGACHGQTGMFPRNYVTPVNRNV
Sequence of FGFR1 (P11362 whole entry, looked up): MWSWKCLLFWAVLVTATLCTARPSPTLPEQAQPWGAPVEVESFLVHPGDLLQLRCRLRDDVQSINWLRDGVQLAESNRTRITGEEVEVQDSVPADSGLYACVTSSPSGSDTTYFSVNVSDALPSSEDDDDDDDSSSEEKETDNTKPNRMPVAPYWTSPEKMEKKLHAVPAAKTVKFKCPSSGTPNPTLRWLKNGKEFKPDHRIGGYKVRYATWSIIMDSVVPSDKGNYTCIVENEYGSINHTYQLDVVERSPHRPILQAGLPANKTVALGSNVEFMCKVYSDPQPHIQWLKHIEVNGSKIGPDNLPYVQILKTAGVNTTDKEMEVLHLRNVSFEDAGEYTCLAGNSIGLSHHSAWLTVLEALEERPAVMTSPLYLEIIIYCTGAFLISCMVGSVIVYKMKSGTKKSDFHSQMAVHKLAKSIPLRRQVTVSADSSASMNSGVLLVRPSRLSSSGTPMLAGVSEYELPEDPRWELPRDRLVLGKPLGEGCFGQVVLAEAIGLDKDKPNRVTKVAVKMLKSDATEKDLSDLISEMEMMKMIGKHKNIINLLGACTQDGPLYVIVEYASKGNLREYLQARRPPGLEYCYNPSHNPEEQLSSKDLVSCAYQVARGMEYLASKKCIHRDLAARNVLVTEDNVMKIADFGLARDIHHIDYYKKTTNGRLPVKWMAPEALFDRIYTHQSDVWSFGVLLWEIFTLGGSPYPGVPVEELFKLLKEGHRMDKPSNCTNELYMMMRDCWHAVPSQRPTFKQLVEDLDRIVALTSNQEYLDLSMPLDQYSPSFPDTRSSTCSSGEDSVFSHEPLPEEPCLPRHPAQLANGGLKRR
Sequence of Hck (P08631 whole entry, looked up): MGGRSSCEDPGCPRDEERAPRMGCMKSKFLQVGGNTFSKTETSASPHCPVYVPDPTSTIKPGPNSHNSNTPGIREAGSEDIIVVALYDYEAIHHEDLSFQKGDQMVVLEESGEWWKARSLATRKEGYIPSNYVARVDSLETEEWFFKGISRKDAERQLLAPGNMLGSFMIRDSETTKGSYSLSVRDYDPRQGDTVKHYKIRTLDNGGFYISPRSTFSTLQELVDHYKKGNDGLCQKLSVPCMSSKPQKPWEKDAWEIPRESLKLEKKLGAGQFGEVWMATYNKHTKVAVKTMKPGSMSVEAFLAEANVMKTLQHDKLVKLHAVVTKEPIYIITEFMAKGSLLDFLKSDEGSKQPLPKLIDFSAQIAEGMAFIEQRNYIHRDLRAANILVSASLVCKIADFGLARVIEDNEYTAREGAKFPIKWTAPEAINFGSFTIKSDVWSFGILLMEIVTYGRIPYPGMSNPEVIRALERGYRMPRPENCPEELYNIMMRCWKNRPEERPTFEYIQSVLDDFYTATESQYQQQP
Sequence of EPHB1 (P54762 whole entry, looked up): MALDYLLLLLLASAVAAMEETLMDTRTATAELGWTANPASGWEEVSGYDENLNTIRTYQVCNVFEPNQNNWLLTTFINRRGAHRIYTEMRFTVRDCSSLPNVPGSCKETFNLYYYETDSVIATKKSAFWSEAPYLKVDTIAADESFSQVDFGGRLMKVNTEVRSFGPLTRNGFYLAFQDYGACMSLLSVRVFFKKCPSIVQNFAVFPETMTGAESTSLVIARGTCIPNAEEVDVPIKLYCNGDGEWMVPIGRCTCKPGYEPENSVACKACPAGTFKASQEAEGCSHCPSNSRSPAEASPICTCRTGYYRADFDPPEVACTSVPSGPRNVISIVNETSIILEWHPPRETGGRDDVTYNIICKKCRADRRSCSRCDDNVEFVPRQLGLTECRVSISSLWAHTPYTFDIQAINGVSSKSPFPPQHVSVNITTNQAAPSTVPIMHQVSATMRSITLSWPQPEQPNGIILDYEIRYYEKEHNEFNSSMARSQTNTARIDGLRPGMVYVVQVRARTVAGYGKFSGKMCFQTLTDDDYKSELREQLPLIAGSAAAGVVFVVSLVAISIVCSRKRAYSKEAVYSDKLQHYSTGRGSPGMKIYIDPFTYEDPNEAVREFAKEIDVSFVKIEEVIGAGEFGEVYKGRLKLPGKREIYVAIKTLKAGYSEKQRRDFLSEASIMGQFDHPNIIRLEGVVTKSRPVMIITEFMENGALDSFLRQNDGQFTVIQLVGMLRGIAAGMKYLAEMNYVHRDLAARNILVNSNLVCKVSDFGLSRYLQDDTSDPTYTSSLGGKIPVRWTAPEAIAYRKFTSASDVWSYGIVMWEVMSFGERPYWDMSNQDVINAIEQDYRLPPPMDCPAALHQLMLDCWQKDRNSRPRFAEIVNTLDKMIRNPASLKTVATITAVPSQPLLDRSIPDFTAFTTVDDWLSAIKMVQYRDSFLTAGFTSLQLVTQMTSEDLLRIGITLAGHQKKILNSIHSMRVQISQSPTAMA

Sequence | SH2 binding enrichment (c-Src SH2) | SH2 binding enrichment (SHP2-C SH2) | SH2 binding enrichment (Grb2 SH2) | phosphorylation enrichment (EPHB1) | phosphorylation enrichment (Hck) | phosphorylation enrichment (Jak2) | phosphorylation enrichment (MERTK) | phosphorylation enrichment (FGFR3) | phosphorylation enrichment (FGFR1) | phosphorylation enrichment (Fyn) | phosphorylation enrichment (AncSZ) | phosphorylation enrichment (c-Src) | phosphorylation enrichment (Fer (mouse)) | phosphorylation enrichment (EPHB2) | phosphorylation enrichment (Fes) | phosphorylation enrichment (c-Abl (mouse))
EKKKKYMLPLD [DNM2_Y563_E560K] | 0.522 | 0.436 | 0.762 | 0.52 | 0.452 | 0.567 | 0.504 | 0.506 | 0.5 | 0.604 | 0.594 | 0.496 | 0.502 | 0.469 | 0.951 | 0.691
EAVKNYTEKRG [PBRM1_Y672_D674E] | 0.446 | 0.612 | 1.01 | 0.318 | 0.388 | 0.478 | 0.384 | 0.449 | 0.394 | 0.328 | 0.626 | 0.335 | 0.564 | 0.344 | 0.514 | 0.433
CTTIHYNFVCN [TP53_Y234_M237V_YF] | 1.93 | 1.59 | 1.94 | 0.678 | 0.54 | 1.01 | 0.508 | 0.769 | 0.694 | 0.539 | 0.998 | 0.532 | 0.694 | 0.654 | 1.11 | 0.754
GKPENYRRLDI [VHL_Y175_V170G] | 0.508 | 0.754 | 0.755 | 0.317 | 0.327 | 0.539 | 0.337 | 0.376 | 0.335 | 0.295 | 0.452 | 0.353 | 0.301 | 0.285 | 0.598 | 0.457
RALLNYIASKF [GSTA3_Y74_I71L_YF] | 0.49 | 0.579 | 0.842 | 0.763 | 0.721 | 0.536 | 0.597 | 0.767 | 0.423 | 0.385 | 1.13 | 0.587 | 0.553 | 0.624 | 0.956 | 0.638
HKNNNYEPSLF [BRCA2_Y57_N60S] | 0.866 | 0.72 | 0.931 | 0.689 | 0.563 | 0.897 | 0.654 | 0.891 | 0.793 | 0.652 | 1.13 | 0.658 | 0.791 | 0.766 | 1 | 0.659
PTTKTYFPHFA [HBA1_Y43_D48A] | 0.496 | 0.734 | 0.714 | 0.572 | 0.754 | 0.469 | 0.675 | 0.599 | 0.313 | 0.798 | 0.796 | 0.781 | 0.384 | 0.386 | 0.724 | 0.646
PPNSPYIGSSP [KCNT1_Y740] | 0.371 | 0.557 | 0.783 | 0.493 | 0.457 | 0.417 | 0.422 | 0.362 | 0.537 | 0.464 | 0.501 | 0.352 | 0.382 | 0.468 | 0.557 | 0.572
QTEAPYRFIFM [PTPN11_Y511_Q510P_YF] | 0.367 | 0.751 | 0.662 | 0.728 | 0.645 | 1.55 | 0.595 | 1.98 | 2.71 | 0.637 | 1.34 | 0.777 | 4.48 | 0.626 | 1.34 | 1.34
NARGLYFKLHN [GATA2_Y376_C373R_YF] | 0.624 | 0.88 | 0.988 | 0.622 | 0.53 | 1.67 | 0.476 | 0.87 | 0.554 | 0.487 | 1.51 | 0.542 | 0.657 | 0.634 | 1.34 | 0.896
RLDGEYFTLQI [TP53_Y327_P322R] | 0.484 | 0.572 | 0.701 | 0.748 | 0.772 | 2.46 | 0.538 | 4.05 | 5.82 | 1.34 | 1.89 | 2.16 | 0.72 | 0.716 | 1.54 | 1.2
PEADKYRLPYA [FGG_Y300_T303P] | 0.402 | 0.612 | 0.741 | 0.89 | 0.598 | 1.33 | 0.477 | 0.552 | 0.439 | 0.467 | 0.763 | 0.488 | 0.521 | 0.715 | 1 | 0.571
ITLKGYNLSNS [GNPTAB_Y728_K732N] | 0.627 | 0.884 | 1.05 | 0.385 | 0.477 | 0.547 | 0.381 | 0.618 | 0.525 | 0.488 | 0.66 | 0.448 | 0.433 | 0.487 | 0.639 | 0.466
TEVIWYKGDEE | 0.478 | 0.624 | 0.484 | 0.516 | 0.335 | 1.45 | 0.51 | 0.704 | 0.445 | 0.445 | 1.72 | 0.601 | 0.393 | 0.606 | 1.55 | 0.691
EGDGVYTLNNE [HP_Y125] | 0.403 | 0.709 | 0.828 | 0.602 | 3.07 | 0.934 | 0.509 | 0.822 | 0.595 | 6.33 | 1.26 | 4.26 | 0.658 | 0.633 | 1.16 | 0.817
QADIIYVNTQL [MERTK_Y872_V870I] | 0.475 | 0.543 | 0.916 | 1.18 | 0.886 | 1.05 | 0.571 | 0.84 | 0.712 | 1.09 | 1.28 | 1.24 | 4.18 | 0.518 | 1.29 | 1.02
AYRHGYFDEEM [PLEC_Y2971_R2969H] | 0.634 | 0.771 | 0.893 | 0.664 | 0.643 | 0.827 | 0.5 | 0.657 | 0.676 | 0.593 | 1.03 | 0.461 | 0.526 | 0.631 | 1.05 | 0.742
LNEWHYGGLTG [PGAM2_Y92_R90W] | 0.682 | 1.29 | 0.723 | 0.444 | 0.738 | 0.84 | 0.365 | 0.891 | 0.58 | 0.662 | 0.74 | 0.52 | 0.636 | 0.452 | 1.12 | 0.626
KQNSLYSFSDH [CCDC82_Y331] | 0.466 | 0.609 | 0.765 | 0.853 | 3.25 | 0.853 | 9.08 | 0.536 | 0.489 | 5.24 | 1 | 3.97 | 3.95 | 0.651 | 0.907 | 0.691
VNFDFYTVNLG [GFPT1_Y367_D366Y_YF] | 0.632 | 0.98 | 1.03 | 0.804 | 1.81 | 1.23 | 1.97 | 0.75 | 0.593 | 3.26 | 1.29 | 2.27 | 0.758 | 0.772 | 1.33 | 0.762
RQQEDYLLFKQ [RARRES1_Y159_YF] | 0.571 | 0.838 | 0.892 | 1.11 | 1.16 | 1.39 | 0.516 | 1.28 | 1.45 | 0.68 | 1.57 | 0.576 | 0.637 | 0.978 | 1.85 | 0.924
SSFSRYIMMPN [LEF1_Y114_G113R_YF] | 0.946 | 0.728 | 0.73 | 0.471 | 0.559 | 0.812 | 0.588 | 0.617 | 0.599 | 0.509 | 0.738 | 0.485 | 0.484 | 0.556 | 0.806 | 0.626
DRPSEYAARQL [ANXA13_Y90] | 0.523 | 0.699 | 0.746 | 0.408 | 0.428 | 0.498 | 0.437 | 0.482 | 0.445 | 0.453 | 0.598 | 0.389 | 0.341 | 0.456 | 0.655 | 0.579
FEEDSYVKRSQ [RET_Y905_YF] | 0.603 | 0.858 | 0.799 | 0.52 | 0.487 | 0.881 | 0.417 | 0.552 | 0.41 | 0.523 | 0.904 | 0.47 | 0.41 | 0.492 | 1.11 | 0.645
MSRDVYSTDFF [NTRK2_Y702_YF] | 0.516 | 0.659 | 0.835 | 0.756 | 1.28 | 0.728 | 5.05 | 0.718 | 1.06 | 2.65 | 0.691 | 2.73 | 0.486 | 0.774 | 0.732 | 0.568
KSELAYEIFDK [MYOM2_Y1024] | 0.956 | 0.776 | 0.956 | 0.596 | 0.951 | 1.24 | 4.45 | 0.782 | 0.65 | 1.94 | 2 | 4.27 | 1 | 0.603 | 1.21 | 0.915
RLMLQYDAVVN [SLC25A32_Y152] | 1.88 | 0.863 | 1.02 | 0.733 | 0.702 | 1.13 | 0.414 | 0.674 | 0.47 | 0.57 | 1.32 | 0.406 | 0.662 | 0.703 | 1.67 | 0.685
NTVLGYFIGRI [GARS1_Y408] | 0.637 | 1.08 | 1.14 | 0.48 | 0.495 | 0.735 | 0.423 | 0.617 | 0.443 | 0.427 | 0.973 | 0.348 | 0.479 | 0.44 | 1.09 | 0.634
CTTIHYNYVCN [TP53_Y234_M237V] | 7.58 | 4.2 | 1.36 | 0.616 | 0.514 | 0.828 | 0.498 | 0.648 | 0.685 | 0.556 | 0.904 | 0.455 | 0.696 | 0.645 | 0.949 | 0.595
